Measured values as given in publication doi:10.1101/2023.04.10.536149.

B1: IRDye700 MARE EMSA probe (dsDNA)
DNA 1: TGCTGACTCAGCA
DNA 2: TGCTGAGTCAGCA
B2: unlabelled MARE competitor (dsDNA)
DNA 1: TGCTGACTCAGCA
DNA 2: TGCTGAGTCAGCA

What was measured:
MBP-MafB WT [1] = molecular target: T1, MBP-MafB WT (Homo sapiens, UniProt Q9Y5Q3 1-323); assay: EMSA
MBP-MafB ΔHis = MBP-MafB ΔHis (Homo sapiens, UniProt Q9Y5Q3 1-323, del131-167); assay: EMSA
MBP-MafB WT [2] = molecular target: T1, MBP-MafB WT; assay: competition

Binder	binding result (MBP-MafB WT [1])	binding result (MBP-MafB ΔHis)	binding result (MBP-MafB WT [2])
B1	binds	binds	
B2			binds
